According to paper PMC7244744, “Vesicular transport mediates the uptake of cytoplasmic proteins into mitochondria in Drosophila melanogaster” (Nature Communications, 2020):

Target: the molecule itself
Assay: SDS-PAGE and western blot with and without DTT; flight-muscle tissue homogenates of wild-type flies, mitochondrial fraction; monomer band and upper band (Dosmit*); analysed in the presence and absence of DTT

B1: Dosmit (downsizing mitochondria), endogenous in fly flight muscle (natural protein, UniProt Q9VAM6 1-133, looked up)
chain: MEPISHLVKSSLPNYLSSLPVPDSIGGWFKLSFKDWLALIPPTVVVAGLGYTAYLAYCPAARASCAAKNSGRCNNHIRKNEPKVVDMIDVEDIAEKAAFCRCWKTKNWPYCDGSHGEHNKQTGDNVGPIVIKK
notes: endogenous protein of flight muscle; Seen as monomer and dimer (Dosmit*) bands on western blots; the dimer band is reduced to the monomer by DTT; also called Dosmit* (dimer form); CG1458; source: endogenous, flight-muscle tissue homogenate of wild-type flies (mitochondrial fraction)
With B1 the “stoichiometry N” value was 2.
